Experimental data taken from patent publication US9803013B2, “Biological materials and uses thereof” (BioInvent International AB, priority 2005, dated 2017).

Legend:
[1] = Limited safety studies in rat, rabbit and monkey; type: in vivo
RPMI-8226 myeloma tumors = experiment: Established RPMI-8226 tumors in SCID mice with macrophage or NK cell depletion; type: in vivo, mouse
Source text: Fc-FcγR-interactions, in addition to enhancing antibody induced negative signalling and tumor PCD (Wilson et al., 2011), may involve both innate and adaptive arms of cellular immunity (Alduaij and Illidge, 2011; Park et al., 2010). Different approaches to assess the role of NK cells and macrophages were used—two principal cell types capable of conferring FcγR dependent antitumor effects—for BI-505 therapeutic activity; Firstly, the relative abundance of these cell types in tumor tissue harvested from BI-505 or control antibody treated mice were examined. […] In contrast, very few intratumoral NK cells could be detected (CD49b^+ CD31^− cells). […] To verify this macrophages or NK cells were depleted, using clodronate liposomes and anti-asialo antibodies respectively, from SCID mice bearing established RPMI-8226 myeloma tumors and examined the effect on BI-505 anti-myeloma activity. A period of three weeks of macrophage and NK cell depletion was chosen as read out since this was the longest time-period where neither treatment affected animal well-being. […] Tumors of macrophage depleted BI-505 treated mice had doubled in size compared with tumors from animals receiving BI-505 treatment alone (VBI-505=95±39 mm^3, VBI-505+clodro=189±94 mm^3, p<0.001), but were similarly sized compared to tumors from control antibody treated mice (Vctrl IgG=198±90 mm^3, p>0.05). NK cell depletion, in contrast, had little or no effect on BI-505 antitumor activity. […]
Treatment with antibodies by intraperitoneal injection started either 1 day after cell inoculation (prophylactic model) or when tumors reached approximately 100 mm^3 (established model). […] Macrophage and NK cell depletion was assessed upon termination of tumor bearing mice exposed to effector cell depleting agents (see above), spleens were removed and splenocytes isolated by mincing through a cell strainer (70 μm nylon mesh, BD Falcon 352350), erythrocytes were removed by lysis according to manufacturer (BD Pharm Lyse 555899, BD Biosciences). […]

ICAM-3 = target: T1, ICAM-3 (Homo sapiens, UniProt P32942); experiment: Binding to recombinant ICAM family protein
T1 sequence (P32942 30-547): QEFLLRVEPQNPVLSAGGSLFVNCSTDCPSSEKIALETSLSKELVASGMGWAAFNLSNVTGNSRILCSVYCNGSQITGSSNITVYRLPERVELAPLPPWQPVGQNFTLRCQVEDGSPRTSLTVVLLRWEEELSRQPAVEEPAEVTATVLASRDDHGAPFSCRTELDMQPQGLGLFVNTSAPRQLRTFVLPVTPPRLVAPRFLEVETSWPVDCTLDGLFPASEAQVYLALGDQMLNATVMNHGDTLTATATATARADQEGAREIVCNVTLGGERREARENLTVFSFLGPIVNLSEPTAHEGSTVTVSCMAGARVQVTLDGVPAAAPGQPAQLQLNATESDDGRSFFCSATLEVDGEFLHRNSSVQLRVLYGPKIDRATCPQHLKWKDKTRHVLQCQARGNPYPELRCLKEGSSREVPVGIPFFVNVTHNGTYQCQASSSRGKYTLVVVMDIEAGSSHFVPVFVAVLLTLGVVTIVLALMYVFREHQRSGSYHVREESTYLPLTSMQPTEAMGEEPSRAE

B1: B11: fully human IgG1 antibody specific for ICAM-1; VH and VL sequences of FIG. 10 (SEQ ID NOs. 6 and 8) (antibody, listed as Homo sapiens, V domains shown)
VH: EVQLLESGGGLVQPGGSLRLSCAASGFTFSNAWMSWVRQAPGKGLEWVAFIWYDGSNKYYADSVKGRFTISRDNSKNTLYLQMNSLRAEDTAVYYCARYSGWYFDYWGQGTLVTVSS
VL: QSVLTQPPSASGTPGQRVTISCTGSSSNIGAGYDVHWYQQLPGTAPKLLIYDNNNRPSGVPDRFSGSKSGTSASLAISGLRSEDEADYYCQSYDSSLSAWLFGGGTKLTVLG
[1]
  toxicity: no compound-related off-target toxicity
RPMI-8226 myeloma tumors; BI-505 treatment alone, three weeks
  tumor volume: 95±39 mm^3
RPMI-8226 myeloma tumors; NK cell depleted (anti-asialo) BI-505 treated mice
  tumor volume: 130±53 mm^3
RPMI-8226 myeloma tumors; macrophage depleted (clodronate liposomes) BI-505 treated mice
  tumor volume: 189±94 mm^3
ICAM-3
  binding to recombinant protein: not to ICAM-2 or ICAM-3
